# Residue numbers refer to the chain shown, from its start.
# T1: chymase (recombinant, SIGMA) (UniProt P23946)
# T1 sequence: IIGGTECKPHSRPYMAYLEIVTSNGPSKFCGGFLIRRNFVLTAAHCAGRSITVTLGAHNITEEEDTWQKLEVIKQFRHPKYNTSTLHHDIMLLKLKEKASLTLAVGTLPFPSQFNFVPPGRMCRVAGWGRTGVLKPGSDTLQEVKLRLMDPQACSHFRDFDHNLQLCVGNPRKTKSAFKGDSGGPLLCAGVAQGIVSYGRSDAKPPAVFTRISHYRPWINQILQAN
# T2: chymase (recombinant, SIGMA) (UniProt P23946 P23946:22-247)
# T2 sequence: T1 sequence
# T3: chymase (native, human skin mast cell) (Homo sapiens, UniProt P23946 P23946:22-247)
# T3 sequence: T1 sequence
# B1: SEQ ID NO: 21 (ssRNA)
# RNA: GGCAGAUGAUCGGACAUAACAGGUUAGAUAGAGUUAAAAACCUGGGGUGUCAA
# modifications: 2'-F pyrimidines (inferred)
# B2: SEQ ID NO: 23 (ssRNA)
# RNA: GGCAGAUGAUCGGACAUAACAGUAGAUAGAGUUAAAACUGGGGUGUCAA
# modifications: 2'-F pyrimidines (inferred)
# B3: SEQ ID NO: 7 (ssRNA)
# RNA: GGGAGCAGGAGAGAGGUCAGAUGUUUGGUAGUAACUGGAAUAGGGGCUACAGGCCUAUGCGUGCUAGUGUGA
# modifications: 2'-F pyrimidines (U, C); purines 2'-OH
# B4: SEQ ID NO: 22 (ssRNA)
# RNA: GGCAGAUGAUCGGACAUAACAGUUAGAUAGAGUUAAAAACUGGGGUGUCAA
# modifications: 2'-F pyrimidines (inferred)
# B5: SEQ ID NO: 3 (ssRNA)
# RNA: GGGAGCAGGAGAGAGGUCAGAUGAUAACCAGUUGGGGGGUCAAUUACAUGGGACCUAUGCGUGCUAGUGUGA
# modifications: 2'-F pyrimidines (U, C); purines 2'-OH
# B6: SEQ ID NO: 2 (ssRNA)
# RNA: GGGAGCAGGAGAGAGGUCAGAUGAUCGGACAUAACAUUGUUGGGGUGUCAAGGCCUAUGCGUGCUAGUGUGA
# modifications: 2'-F pyrimidines (U, C); purines 2'-OH
# B7: SEQ ID NO: 25 (ssRNA)
# RNA: GGCAGAUGAUCGGACAUAACAAGAUAGAGUUAAAUGGGGUGUCAA
# modifications: 2'-F pyrimidines (inferred)
# B8: SEQ ID NO: 10 (ssRNA)
# RNA: GGGAACGAAGCGACAGACCGAAUCAGAAGUUCAACAUGGACAUAACAUCGAUGGGGUGUCAAGUACUGACGACAGA
# modifications: 2'-F pyrimidines (U, C); purines 2'-OH
# B9: SEQ ID NO: 24 (ssRNA)
# RNA: GGCAGAUGAUCGGACAUAACAUAGAUAGAGUUAAAAUGGGGUGUCAA
# modifications: 2'-F pyrimidines (inferred)
# B10: SEQ ID NO: 5 (ssRNA)
# RNA: GGGAGCAGGAGAGAGGUCAGAUGAUGACCGAUUAUAGGUAACCACUUAGGGGGCCUAUGCGUGCUAGUGUGA
# modifications: 2'-F pyrimidines (U, C); purines 2'-OH
# B11: SEQ ID NO: 8 (ssRNA)
# RNA: B10 RNA with G26U, A27G, C28A, U32C, A44U, C45U, U47A, A48C
# modifications: 2'-F pyrimidines (U, C); purines 2'-OH
# B12: SEQ ID NO: 1 (ssRNA)
# RNA: GGGAGCAGGAGAGAGGUCAGAUGAGCAUGCUUUUUGGUAACCGAUAAUGGGGGCCUAUGCGUGCUAGUGUGA
# modifications: 2'-F pyrimidines (U, C); purines 2'-OH
# B13: SEQ ID NO: 6 (ssRNA)
# RNA: B12 RNA with A24U, G25C, C26A, A27U, U28G, G29A, U33A, U35A
# modifications: 2'-F pyrimidines (U, C); purines 2'-OH
# B14: SEQ ID NO: 17(1) (ssRNA)
# RNA: GAUGAUCGGACAUAACAUUGUUGGGGUGUCAA
# modifications: GAU(F)GAU(F)C(F)GGAC(F)AU(F)AAC(F)AU(F)U(F)GU(F)U(F)G(M)G(M)GGU(F)GU(F)C(F)AA (F=2'-F, M=2'-OMe)
# B15: SEQ ID NO: 17(3) (ssRNA)
# RNA: B14 RNA
# modifications: idT-G(M)A(M)U(F)G(M)A(M)U(F)C(F)G(M)G(M)A(M)C(F)A(M)U(F)AAC(F)AU(F)U(F)G(M)U(F)U(F)GG(M)G(M)G(M)U(F)G(M)U(F)C(F)A(M)A(M)-idT (F=2'-F, M=2'-OMe)
# B16: SEQ ID NO: 4 (ssRNA)
# RNA: GGGAGCAGGAGAGAGGUCAGAUGUAACUCUAUUGAGGGGCAUCAGCACAGUAGCCUAUGCGUGCUAGUGUGA
# modifications: 2'-F pyrimidines (U, C); purines 2'-OH
# B17: SEQ ID NO: 33 (ssRNA)
# RNA: AUGAUCGGACAUAACUAAUUAGGGGUGUCAA
# modifications: 2'-F pyrimidines (U, C); purines 2'-OH
# B18: SEQ ID NO: 33(9) (mixed)
# RNA: B17 RNA
# modifications: idT-A(M)U(M)G(M)A(M)U(F)C(F)G(M)G(M)A(M)C(M)A(M)U(M)AAC(M)U(F)A(M)A(M)U(M)U(M)A(M)G(M)G(M)G(M)G(M)tG(M)U(M)C(M)A(M)A(M)-idT (F=2'-F, M=2'-OMe)
# Key:
# [1] = target: T1, chymase (recombinant, SIGMA); experiment: inhibition; conditions: 2'-F pyrimidines (U, C); negative control pool, no inhibition
# [2] = target: T2, chymase (recombinant, SIGMA); experiment: inhibition; Suc-AAPF-MCA substrate, 0.005 ug chymase, single measurement; conditions: tags: SIGMA recombinant
# Protocol: (§1) The assay was performed using a 96-well plate (F16 Black Maxisorp Fluoronunc, manufactured by Nunc), with a reaction mixture volume of 100 μL, in solution C as a buffer solution. Here, the solution C is a mixed solution of 145 mM sodium chloride, 5.4 mM potassium chloride, 1.8 mM calcium chloride, 0.8 mM magnesium chloride, 20 mM Tris (pH 7.6), and 0.05% Tween20. First, nucleic acid was serially diluted in solution C to obtain 50 μL solutions. After 10 μL of the 1 mM substrate prepared in solution C was added thereto, the plate was set to the microplate reader SpectraMax190 (manufactured by Molecular Devices Corporation), and incubated at 37° C. for 5 minutes. Separately, 0.05 μg of chymase (recombinant, manufactured by SIGMA) was diluted in solution C to obtain a 40 μL chymase solution, and incubated at 37° C. for 5 minutes. The chymase solution was added to the mixture of the nucleic acid and substrate to initiate an enzyme reaction. The final chymase concentration in the reaction mixture was 16.7 nM, the final substrate concentration being 100 μM. The plate containing the reaction mixture was set to the microplate reader SpectraMax190 (manufactured by Molecular Devices Corporation), and examined for time-dependent changes in the fluorescence intensity at 37° C. for 5 minutes (or 30 minutes) (excitation wavelength 380 nm, detection wavelength 460 nm). A linear approximation of the increase in the fluorescence of the AMC released from the substrate by chymase activity was generated, and its slope was taken as the initial velocity […]. For control, samples were treated and analyzed in the same manner in two cases: use of a 30N (a nucleotide of 30 consecutive bases represented by N; N is A, G, C or T) nucleic acid pool (negative control), and use of chymostatin, a known chymotrypsin-like serine protease inhibitor (positive control). Taking the initial reaction velocity without the nucleic acid and inhibitor (V₀) as a 100% enzyme activity, the inhibitory rate of each test substance was calculated using the following equation: […]
# In the evaluation of SEQ ID NO: 21-25, a method similar to the evaluation method of inhibitory activity against chymase shown in Example 1 by using MCA as a substrate except that the amount chymase was changed from 0.05 μg to 0.005 μg was used for measurement.
# [3] = target: T2, chymase (recombinant, SIGMA); experiment: inhibition; Suc-AAPF-MCA substrate, 37 C; conditions: tags: SIGMA recombinant
# Protocol: as §1, with “By detecting the fluorescence of this AMC, the enzyme activity of chymase can be determined. The assay” for “The assay”
# [4] = target: T3, chymase (native, human skin mast cell); experiment: inhibition; angiotensin I substrate, 37 C; conditions: tags: Calbiochem Human Skin
# Protocol: (§2) The total volume of solution for an enzyme reaction in the assay was set to 50 μL, and the reaction was performed in solution C buffer. At first, native (manufactured by Calbiochem) was diluted with solution C to give 5 μL thereof. Here, the native is chymase purified from human skin mast cell. The nucleic acid was serially diluted with solution C at a concentration of 0.0027-2 μM to give 25 μL thereof. The chymase solution (5 μL) and the nucleic acid solution (25 μL) were mixed, and the mixture was incubated at 37° C. for 5 min. On the other hand, […] angiotensin I (manufactured by PEPTIDE […], INC.) was prepared in solution C to give 20 μL thereof, which was incubated at 37° C. for 5 min. […] The whole mixture was centrifuged at 4° C., 14000 rpm for 10 min, and the supernatant (30 μL) was used for the next fluorescence induction reaction.
# (§3) The above-mentioned supernatant (30 μL) was added to a 96 well plate (black, manufactured by Costar), a solution (15 μL) of 2% o-phthalaldehyde (manufactured by SIGMA) in methanol and 0.3M NaOH solution (170 μL) were added to each well, and the mixture was incubated at room temperature for 10 min. […] The plate was set on a microplate reader SpectraMax190 (manufactured by Molecular device) and the fluorescence intensity was measured at an excitation wavelength of 355 nm and a fluorescence wavelength of 460 nm. […]
# [5] = target: T3, chymase (native, human skin mast cell); experiment: inhibition; angiotensin I substrate, 37 C; conditions: tags: Calbiochem Human Skin; remark: listed apart in the source
# Protocol: Whether the nucleic acids shown by SEQ ID NO: 9 and 10 inhibit the enzyme activity of chymase was determined by the following method. Angiotensin I is converted by chymase to angiotensin II, during which a peptide fragment His-Leu is released. Since the peptide His-Leu is fluorescently derivatized by o-phthalaldehyde, its fluorescence intensity can be quantitatively measured.
# The total volume of solution for an enzyme reaction in the assay was set to 50 μL, and the reaction was performed in solution C buffer. At first, native (manufactured by Calbiochem) was diluted with solution C to give 5 μL thereof. Here, the native is chymase purified from human skin mast cell. […] The whole mixture was centrifuged at 4° C., 14000 rpm for 10 min, and the supernatant (30 μL) was used for the next fluorescence induction reaction.
# The above-mentioned supernatant (30 μL) was added to a 96 well plate (black, manufactured by Costar), a solution (15 μL) of 2% o-phthalaldehyde (manufactured by SIGMA) in methanol and 0.3M NaOH solution (170 μL) were added to each well, and the mixture was incubated at room temperature for 10 min. […] The plate was set on a microplate reader SpectraMax190 (manufactured by Molecular device) and the fluorescence intensity was measured at an excitation wavelength of 355 nm and a fluorescence wavelength of 460 nm.
# [6] = target: T2, chymase (recombinant, SIGMA); experiment: inhibition; Suc-AAPF-MCA substrate, 37 C, 1.8 mM Ca, 0.8 mM Mg, pH 7.6; conditions: tags: SIGMA recombinant
# Protocol: By detecting the fluorescence of this AMC, the enzyme activity of chymase can be determined. The assay was performed using a 96-well plate (F16 Black Maxisorp Fluoronunc, manufactured by Nunc), with a reaction mixture volume of 100 μL, in solution C as a buffer solution. Here, the solution C is a mixed solution of 145 mM sodium chloride, 5.4 mM potassium chloride, 1.8 mM calcium chloride, 0.8 mM magnesium chloride, 20 mM Tris (pH 7.6), and 0.05% Tween20. First, nucleic acid was serially diluted in solution C to obtain 50 μL solutions. After 10 μL of the 1 mM substrate prepared in solution C was added thereto, the plate was set to the microplate reader SpectraMax190 (manufactured by Molecular Devices Corporation), and incubated at 37° C. for 5 minutes. […] The plate containing the reaction mixture was set to the microplate reader SpectraMax190 (manufactured by Molecular Devices Corporation), and examined for time-dependent changes in the fluorescence intensity at 37° C. for 5 minutes (or 30 minutes) (excitation wavelength 380 nm, detection wavelength 460 nm). A linear approximation of the increase in the fluorescence of the AMC released from the substrate by chymase activity was generated, and its slope was taken as the initial velocity […]. […]
# [7] = target: T3, chymase (native, human skin mast cell); experiment: inhibition; angiotensin I substrate; second G of GGGG 2'-OMe; conditions: tags: Calbiochem Human Skin
# Protocol: as §2, §3
# [8] = target: T3, chymase (native, human skin mast cell); experiment: inhibition; angiotensin I substrate; table prints length 32 though SEQ 33 is 31 nt; conditions: tags: Calbiochem Human Skin
# Protocol: The total volume of solution for an enzyme reaction in the assay was set to 50 μL, and the reaction was performed in solution C buffer. At first, native (manufactured by Calbiochem) was diluted with solution C to give 5 μL thereof. Here, the native is chymase purified from human skin mast cell. The nucleic acid was serially diluted with solution C at a concentration of 0.0027-2 μM to give 25 μL thereof. The chymase solution (5 μL) and the nucleic acid solution (25 μL) were mixed, and the mixture was incubated at 37° C. for 5 min. On the other hand, […] angiotensin I (manufactured by PEPTIDE […], INC.) was prepared in solution C to give 20 μL thereof, which was incubated at 37° C. for 5 min. The angiotensin I solution was added to a mixture of chymase and nucleic acid to start an enzyme reaction. The final chymase concentration of the reaction solution was 0.5 nM, and the final substrate concentration was 50 μM. After reaction at 37° C. for 90 min, ice-cooled 30% trichloroacetic acid solution (25 μL) was added to quench the reaction. The whole mixture was centrifuged at 4° C., 14000 rpm for 10 min, and the supernatant (30 μL) was used for the next fluorescence induction reaction.
# [9] = target: T3, chymase (native, human skin mast cell); experiment: inhibition; angiotensin I substrate; second G of GGGG 2'-OMe; conditions: tags: Calbiochem Human Skin; remark: listed apart in the source
# Protocol: as §2, §3
molecule,measurement,setting,value
UCACACUAGCACGCAUAGGNNNNNNNNNNNNNNNNNNNNNNNNNNNNNNCAUCUGACCUCUCUCCUGCUCCC [30N nucleic acid pool],IC50,[1],> 500 nM
B1,IC50,[2],5.7 nM
B2,IC50,[2],7.8 nM
B3,IC50,[3],52 nM
B4,IC50,[2],5 nM
B5,IC50,[3],26 nM
B6,IC50,[3],31 nM
same,IC50,[4],10 nM
B7,IC50,[2],5.8 nM
B8,IC50,[5],0.43 nM
B9,IC50,[2],3.7 nM
B10,IC50,[3],7 nM
B11,IC50,[3],35 nM
B12,IC50,[6],41 nM
B13,IC50,[3],5.5 nM
B14,IC50,[7],44.4 nM
B15,IC50,[7],5.66 nM
B16,IC50,[3],10.8 nM
B17,IC50,[8],0.21 nM
B18,IC50,[9],1.35 nM

# From patent US20210002644, “ANTI-CHYMASE APTAMER AND USE FOR SAME” (RIBOMIC INC., published 2021)
